From patent publication US20090170219, “Nucleic acid capable of binding to immunoglobulin G and use thereof” (published 2009)

B1: SEQ ID NO:17-6 (23F12) (mixed)
RNA: GGAGGUGCUCCGAAAGGAACUCCAAAAAAAAAAAAAAAA
modifications: deoxy G1 G2 G7 G12-A15 C22 C23 and A16 tail; 2'-F U6 C8 U9 C10 C11 C20 U21; rest 2'-OH
B2: SEQ ID NO:17-2 (23F2) (mixed)
RNA: B1 RNA
modifications: deoxy G1 G2 G12-A15 C22 C23 and A16 tail; 2'-F U6 C8 U9 C10 C11 C20 U21; rest 2'-OH
B3: SEQ ID NO:17-8 (23F25) (mixed)
RNA: B1 RNA
modifications: 2'-OMe G1 G2 G12-A15 C22 C23; 2'-F U6 C8 U9 C10 C11 C20 U21; deoxy A16 tail; rest 2'-OH
B4: SEQ ID NO:17-5 (23F11) (mixed)
RNA: B1 RNA
modifications: deoxy G1 G2 G12-G17 C22 C23 and A16 tail; 2'-F U6 C8 U9 C10 C11 C20 U21; rest 2'-OH
B5: SEQ ID NO:17-4 (23F10) (mixed)
RNA: B1 RNA
modifications: deoxy G1 G2 C11 G12-A15 C22 C23 and A16 tail; 2'-F U6 C8 U9 C10 C20 U21; rest 2'-OH
B6: SEQ ID NO:15-4 (30F-4) (mixed)
RNA: GGAGGUGCUCCGCGGAAACGCGGAACUCC
modifications: deoxy G1 G2 C13 G15 A16 A17 A18 C19 C21 C28 C29; 2'-F U6 C8 U9 C10 C11 C26 U27; rest 2'-OH
B7: SEQ ID NO:15-3 (30F-3) (mixed)
RNA: GGAGGUGCUCCGCGAGCCACGCGGAACUCC
modifications: deoxy G1 G2 C11 C13 A15-A19 C20 C22 C29 C30; 2'-F U6 C8 U9 C10 C27 U28; rest 2'-OH
B8: SEQ ID NO:23 (ssRNA)
RNA: GGGUACGAGUCUGGACUUGCAACCUAAUGCGGUGCUCCUCUGGAACCAUUAGCUGUUGCAAAUGAGGCUCACAACAGGC
modifications: 2'-F at all pyrimidines
B9: SEQ ID NO:19 (ssRNA)
RNA: GGGUACGAGUCUGGACUUGCAACAAGGUGCUCCACCUACCUAGUGGAACUUGCUGAUGAGGCUCACAACAGGC
modifications: 2'-F at all pyrimidines
B10: SEQ ID NO:21 (ssRNA)
RNA: GGGUACGAGUCUGGACUUGCAACGGAUACAGGUGCUCCGAUCUUCGGAACUGGCGUUGGCGGUGAGGCUCACAACAGGC
modifications: 2'-F at all pyrimidines
B11: SEQ ID NO:20 (ssRNA)
RNA: GGGUACGAGUCUGGACUUGCAAGGUGCUCCGUUAGCAUUGCGGAACUUGCAAUAUAUCCUAUUGAGGCUCACAACAGGC
modifications: 2'-F at all pyrimidines
B12: SEQ ID NO:22 (ssRNA)
RNA: GGGUACGAGUCUGGACUUGCAAUACGAGGUGCUCCAAGGAAUCGCCCUGGAACUCGACGACGUGAGGCUCACAACAGGC
modifications: 2'-F at all pyrimidines
B13: SEQ ID NO:10 (ssRNA)
RNA: GGAAUGGACGAGUUACAGGUGCUCCAUCAACAAAAUGUUACAUGGAACUGUAACGGCCGACAU
modifications: 2'-F at all pyrimidines
B14: SEQ ID NO:11 (ssRNA)
RNA: GGACGAGUUACAGGUGCUCCAUCAACAAAAUGUUACAUGGAACUGUAACGGCCG
modifications: 2'-F at all pyrimidines
B15: SEQ ID NO:2 (ssRNA)
RNA: GGGACACAAUGGACGUCAAAGAAGAGGUGCUCUGCGAGCCACGCGGAACUCUAUAACGGCCGACAUGAGAG
modifications: 2'-F at all pyrimidines
B16: SEQ ID NO:3 (ssRNA)
RNA: GGGACACAAUGGACGGCGUAAAAUGGAACCUGGGUUAGAAUAUCGGGGGUGCUCCGUAACGGCCGACAUGAGAG
modifications: 2'-F at all pyrimidines
B17: SEQ ID NO:7 (ssRNA)
RNA: GGGACACAAUGGACGGGUGUUACAGGUGCUUGAUAAAGGUAGAAAAUCAAACUGUAACGGCCGACAUGAGAG
modifications: 2'-F at all pyrimidines
B18: SEQ ID NO:8 (ssRNA)
RNA: GGGACACAAUGGACGAAAGGUGCUCCAACUAAAUUUGGAACUUUCCACCCAUAAUAACGGCCGACAUGAGAG
modifications: 2'-F at all pyrimidines
B19: SEQ ID NO:6 (ssRNA)
RNA: GGGACACAAUGGACGGCUGGUAAGGUGCUCGGAAUGGAACUCGUCAUUCGGAACUUAACGGCCGACAUGAGAG
modifications: 2'-F at all pyrimidines
B20: SEQ ID NO:4 (ssRNA)
RNA: GGGACACAAUGGACGGCCAACGUUAACUGGAACUGUAAAUCAGGUGCUCGAGAUAACGGCCGACAUGAGAG
modifications: 2'-F at all pyrimidines
B21: SEQ ID NO:5 (ssRNA)
RNA: GGGACACAAUGGACGACUACAAGGUGCUCCUUGAAAUGUUAAAUGAGGAACUUGUAACGGCCGACAUGAGAG
modifications: 2'-F at all pyrimidines
B22: SEQ ID NO:9 (ssRNA)
RNA: GGGCCACAGCGAGGUGCUCCACCAUUCACGUGGAACUCGUGGGCAGCCCGUCCCCGCGUGUGGUCGG
modifications: 2'-F at all pyrimidines

Target: T1, IgG1 (human, UniProt P01857-1 P01857-1:1-330)
Assay: SPR; parent SEQ 17 ++
Conditions: tags: Calbiochem; chain copies: 2
Procedure: (§1) Used for the measurements was BIAcore 2000 manufactured by BIAcore. Used as the sensor chip was the SA chip having streptavidin immobilized thereon. Bound thereto was about 1000 RU of 16-residue Poly dT having biotin bound to the 5′ end thereof. The RNA for use as the ligand had 16-residue Poly A added to the 3′ end thereof, and immobilized to the SA chip via a bond between dT and A. The amount immobilized was adjusted to about 1000 RU by injecting 60 μL at a concentration of 0.01 μg/μL. 70 μL of IgG-Fc for analyte (manufactured by Athens Research & Technology), adjusted to 0.6 μM, was injected. The running buffer used had the same components as those of the solution A used in SELEX.
The RNAs were prepared by chemical synthesis (manufactured by Gene Design). Their binding affinities were measured by a surface plasmon resonance method as in Example 1. Used as the IgG was human IgG1 (manufactured by Calbiochem).

T1 sequence (P01857 other isoform, or with tags, fused parts or gaps): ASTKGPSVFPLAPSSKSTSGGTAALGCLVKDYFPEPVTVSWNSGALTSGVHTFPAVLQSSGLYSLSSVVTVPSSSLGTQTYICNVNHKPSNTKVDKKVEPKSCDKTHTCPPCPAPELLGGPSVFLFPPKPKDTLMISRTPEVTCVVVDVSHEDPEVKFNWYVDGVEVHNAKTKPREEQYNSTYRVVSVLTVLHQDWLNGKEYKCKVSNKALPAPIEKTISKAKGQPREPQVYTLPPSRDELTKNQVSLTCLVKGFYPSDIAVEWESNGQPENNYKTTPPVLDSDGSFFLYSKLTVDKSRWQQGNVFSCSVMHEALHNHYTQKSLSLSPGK

Binder | binding result
GGAGGUGCUCCGAAAGGAACUCCAAAAAAAAAAAAAAAA (mixed, as 17-8 with 2'-OMe C11) [SEQ ID NO:17-13 (23F43)] | binds
GGAGGUGCUCCGAAAGGAACUCCAAAAAAAAAAAAAAAA (mixed, as 17-8 with 2'-OMe C10) [SEQ ID NO:17-12 (23F42)] | binds
B1 | binds
B2 | binds
GGAGGUGCUCCGAAAGGAACUCCAAAAAAAAAAAAAAAA (mixed, as 17-7 with 2'-OMe U9) [SEQ ID NO:17-14 (23F31)] | binds
B3 | binds
GGAGGUGCUCCGAAAGGAACUCCAAAAAAAAAAAAAAAA (mixed, as 17-7 with 2'-OMe G17) [SEQ ID NO:17-10 (23F33)] | binds
GGAGGUGCUCCGAAAGGAACUCCAAAAAAAAAAAAAAAA (mixed, as 17-8 with 2'-OMe U9) [SEQ ID NO:17-11 (23F41)] | binds
GGAGGUGCUCCGAAAGGAACTCCAAAAAAAAAAAAAAAA (mixed, 2'-F U6 C8 U9 C20; deoxy C10 C11 T21 C22 C23 and A16 tail; rest 2'-OH) [SEQ ID NO:17-1 (23F1)] | binds
B4 | binds
B5 | binds

Target: T1, IgG1
Assay: SPR; parent SEQ 15 ++++
Conditions: tags: Calbiochem; chain copies: 2

Binder | binding result
B6 | binds
B7 | binds

Target: T1, IgG1
Assay: SPR
Conditions: tags: Calbiochem; chain copies: 2

Binder | binding result
GGAGGUGUUCCGAAAGGAACUCC (ssRNA, 2'-F at all pyrimidines [2'-F pyrimidines at 6,8,9,10,11,20,21,22,23]) [SEQ ID NO:17 C8U] | no binding
B8 | binds
B9 | binds

Same assay, conditions: tags: Calbiochem; chain copies: 2; GGUGCU bulge

Binder | binding result
B10 | binds
B11 | binds
B12 | binds

Same assay, conditions: tags: Calbiochem; chain copies: 2; label: 3' A16 tail for immobilisation

Binder | binding result
GGAGGUGCUCGAAAGAACUCC (ssRNA, 2'-F at all pyrimidines) [SEQ ID NO:18] | binds
GGACAGGUGCUCUGCGAGCCACGCGGAACUGUCC (ssRNA, 2'-F at all pyrimidines) [SEQ ID NO:13] | binds
GGACAGGUGCUCCAUCAACAAAAUGUUACAUGGAACUGUCC (ssRNA, 2'-F at all pyrimidines) [SEQ ID NO:12] | binds

Target: T1, IgG1
Assay: SPR; solution A
Conditions: tags: Calbiochem; chain copies: 2; label: 3' A16 tail for SPR; 5' biotin for serum pull-down
Procedure: as §1
The dissociation constant was determined by immobilizing an RNA having 16-residue PolyA added to the 3′ end thereof onto a sensor chip via an A-dT bond, injecting different concentrations of IgG (0.6 μM to 0.05 μM), and performing surface plasmon resonance.
Measurements were performed in the same manner as Example 1 by immobilizing an RNA having 16-residue Poly A added thereto via an A-pT bond, and injecting IgG thereto.

Binder | Kd [nM]
GGAGGUGCUCUGCGAGCCACGCGGAACUCC (ssRNA, 2'-F at all pyrimidines) [SEQ ID NO:15] | 5

Same assay, conditions: tags: Calbiochem; chain copies: 2; label: 3' A16 tail for immobilisation

Binder | Kd [nM]
GGACAGGUGCUCUGCGGAAACGCGGAACUGUCC (ssRNA, 2'-F at all pyrimidines) [SEQ ID NO:14] | 4
GGACAGGUGCUCCGAAAGGAACUGUCC (ssRNA, 2'-F at all pyrimidines) [SEQ ID NO:16] | 6
B13 | 6
B14 | 1

Same assay, conditions: tags: Calbiochem; chain copies: 2; label: 3' A16 tail for immobilisation; GGUGCU bulge

Binder | Kd [nM]
B15 | 5
B16 | 10
B17 | 0.001
B18 | 3
B19 | 1
B20 | 20
B21 | 30

Same assay, conditions: tags: Calbiochem; chain copies: 2; label: 3' A16 tail for immobilisation; GGUGCU bulge (vsfold4)

Binder | Kd [nM]
B22 | 20
